Sequences and labels used below:
B1: SR50 (VHH)
VHH: QVQLVESGGGLVQAGGSLRLNCAASGFPVAQAVMAWYRQALGKEREWVAAMHSTGTYTAYADSVKGRFTISRDNAKNTVYLQMNSLKPEDTAVYYCAVHVGFWYAGQGTQVTVS
B2: SR44 (VHH)
VHH: QVQLVESGGGLVQAGGSLRLSCAASGFPVGTAQMAWYRQAPGKEREWVAAITSYGEYTLYADSVKGRFTISRDNAKNTVYLQMNSLKPEDTAVYYCAVHVGFWYTGQGTQVTVS
B3: SR61 (VHH)
VHH: B2 VHH with G30D, T31I, Q33E, T52G, Y54Q, E56M, Y57T, L59H, T105A
B4: SR47 (VHH)
VHH: B2 VHH with G30K, A32E, Q33T, A35H, T52Y, E56T, A97E, H99Q, F102E, T105E
B5: SR57 (VHH)
VHH: B2 VHH with G30E, T31Q, Q33E, T52V, E56H, Y57S, L59Y, H99F, T105A
B6: SR60 (VHH)
VHH: B2 VHH with G30E, T31H, T52Q, E56S, Y57T, L59Y, T105A
B7: MR2 (VHH)
VHH: QVQLVESGGGLVQAGGSLRLSCAASGFPVYFSYMAWYRQAPGKEREWVAAINSEGDSTTYADSVKGRFTISRDNAKNTVYLQMNSLKPEDTAVYYCNVKDYGWYNSQYDYWGQGTQVTVS
B8: SR34 (VHH)
VHH: QVQLVESGGGLVQAGGSLRLSCAAGGFPVKDHEMEWYRQAPGKEREWVAAITSSGWGTNTYYADSVKGRFTISRDNAKNTVYLQMNSLKPEDTAVYYCYVYVGSSYIGQGTQVTVS
B9: SR59 (VHH)
VHH: QVQLVESGGGLVQAGGSLRLSCAASGFPVKTSRMYWYRQAPGKEREWVAAIISYGSVTFYADSVKGRFTISRDNAKNTVYLQMNSLKPEDTAVYYCYVYVGAQYWGQGTQVTVS
B10: SR56 (VHH)
VHH: QVQLVESGGGLVQAGGSLSLSCAASGFPVEHYGMYWYRQAPGKEREWVAAIRSDGQWTHYADSVKGRFTISRDNAKNTVYLQMNSLKPEDTAVYYCTVGVGSNYYGQGTQVTVS
B11: SR51 (VHH)
VHH: QVQLVESGGGLVQAGGSLRLSCAASGFPVWESYMRWYRQAPGKEREWVAAIQSNGNNTWYADSVKGRFTISRDNAKNTVYLQMNSLKPEDTAVYYCVVYVGYEYHGQGTQVTVS
B12: SR45 (VHH)
VHH: QVQLVESGGGLVQAGGSLRLSCAASGFPVDNATMAWYRQAPGKEREWVAAIHSIGGYTTYADSVKGRFTISRDNAKNTVYLQMNSLKPEDTAVYYCVGVGKHYYGQGTQVTVS
B13: SR37 (VHH)
VHH: QVQLVESGGGLVQAGGSLRLSCAASGFPVSTAEMTWYRQAPGKEREWVAAIESYGNSTEYADSVKGRFTISRDNAKNTVYLQMNSLKPEDTAVYYCYVYVGYSYIGQGTQVTVS
B14: SR52 (VHH)
VHH: B13 VHH with S30N, T31N, A32M, E52A, Y54D, N56S, S57Y, Y99W, Y102K
B15: SR49 (VHH)
VHH: QVQLVESGGGLVQAGGSLRLSCAASGFPVFHAYMAWYRQAPGKEREWVAAIESDGSSTHYADSVKGRFTISRDNAKNTVYLQMNSLKPEDTSVYYCAVLVGFWYAGQGTQVTVS
B16: SR38 (VHH)
VHH: QVQLVESGGGLVQAGGSLRLSCAASGFPVNQEEMEWYRQAPGKEREWVAAIKSWGTLTAYADSVKGRFTISRDNAKNTVYLQMNSLKPEDTAVYYCAVHVGQTYIGQGTQVTVS
B17: MR7 (VHH)
VHH: QVQLVESGGGLVQAGGSLRLSCAASGFPVNSWMEWYRQAPGKEREWVAAITSYGYKTYYADSVKGRFTISRDNAKNTVYLQMNSLKPEDTAVYYCNVKDEGYFSDEYDYWGQGTQVTVS
B18: SR54 (VHH)
VHH: QVQLVESGGGLVQAGGSLRLSCAASGFPVSQARMHWYRQAPGKEREWVAAIGSSGDFTRYADSVKGRFTISRDNAKNTVYLQMNSLKPEDTAVYYCEVQVGQWYEGQGTQVTVS
B19: SR33 (VHH)
VHH: QVQLVESGGGLVQAGGSLRLSCAASGFPVGSNEMEWYRQAPGKEREWVAAIQSSGVFTYYADSVKGRFTISRDNAKNTVYLQMNSLKPEDTAVYYCYVYVGGSYLGQGTQVTVS
B20: SR43 (VHH)
VHH: B19 VHH with G30K, S31K, N32H, S54K, V56Y, F57T, G102E, L105I
B21: SR39 (VHH)
VHH: B19 VHH with G30D, S31A, N32S, Q52E, S54Q, V56Y, F57E, G102S, L105I
B22: SR41 (VHH)
VHH: B19 VHH with N32T, Q52S, S54T, V56H, F57Y, Y59H
B23: SR36 (VHH)
VHH: B19 VHH with G30Y, S31M, N32E, Q52A, S54Y, V56S, F57E, G102Q, L105I
B24: SR40 (VHH)
VHH: B19 VHH with G30D, N32Q, Q52S, S54N, V56K, F57S, G102L, L105I
B25: MR5 (VHH)
VHH: QVQLVESGGGLVQAGGSLRLSCAASGFPVDAWEMAWYRQAPGKEREWVAAIRSFGRRTHYADSVKGRFTISRDNAKNTVYLQMNSLKPEDTAVYYCNVKDFGTHTQEYDYWGQGTQVTVS
B26: MR1 (VHH)
VHH: QVQLVESGGGLVQVGGSLRLSCAASGFPVYHSIMHWYRQAPGKEREWVAAIYSSGAHTYYADSVKGRFTISRDNAKNTVYLQMNSLKPEDTAVYYCNVKDGGNWDHTYDYWGQGTQVTVS
B27: MR6 (VHH)
VHH: QVQLVESGGGLVQAGGSLRLSCAASGFPVEDTWMEWYRQAPGKEREWVAAITSWGFKTYYADSVKGRFTISRDNAKNTVYLQMNSLKPEDTAVYYCNVKDEGDTSASYDYWGQGTQVTVS
B28: SR35 (VHH)
VHH: QVQLVESGGGLVQAGGSLRLSCAASGFPVKHQTMEWYRQAPGKEREWVAAIMSKGRKTEYADSVKGRFTISRDNAKNTVYLQMNSLKPEDTAVYHCHVYVGATYFGQGTQVTVS
B29: SR42 (VHH)
VHH: B28 VHH with K30Q, H31Q, Q32R, T33E, E35T, R56V, K57H, H95Y, T103S
B30: SR46 (VHH)
VHH: QVQLVESGGGLVQAGGSLRLSCAASGFPVFTENMHWYRQAPGKEREWVAAIYSYGVWTLYADSVKGRFTISRDNAKNTVYLQMNSLKPEDTAVYYCVVQVGEWYEGQGTQVTVS
B31: SR48 (VHH)
VHH: B18 VHH with S30N, A32N, R33N, G52Y, R59L, Q102F, E105T
B32: SR58 (VHH)
VHH: B30 VHH with F30K, T31Q, Y54T, V56N, W57F, V97A, E102Q
B33: SR55 (VHH)
VHH: B30 VHH with F30D, E32T, Y54S, V56G, W57F, V97T, Q99W, E102D
B34: SR53 (VHH)
VHH: B30 VHH with F30Y, T31S, E32Q, N33H, Y54N, V56T, W57Y, V97E, Q99N
B35: SR62 (VHH)
VHH: B30 VHH with T31Q, Y54Q, V56S, W57Y, V97E, Q99N, E102Q, E105Y

Changes are numbered by the printed parent chain.

The target in the test is SARS-CoV-2 S-RBD with Avi-tag and deca-His tag (residues 330-531) (SARS-CoV-2, UniProt P0DTC2, biotin on the Avi tag (BirA) where immobilised on streptavidin sensors or used in ELISA and FSEC).
For B1, the binding result is recorded as “binds”.
For the molecule B2, the binding result is reported as “binds”.
Then B3, with “binds”; and B4, with “binds”.
The result for B5 reads “binds”; that for B6, “binds”.
Regarding B7, the binding result is listed as “binds”.
Then B8, with “binds”.
Turning to B9, the binding result is “binds”.
As to B10, the binding result is “binds”.
The result for B11 reads “binds”; that for B12, “binds”; that for B13, “binds”.
The result for B14 reads “binds”; that for B15, “binds”.
The result for B16 reads “binds”; that for B17, “binds”.
As for B18, the binding result is “binds”.
The result for B19 reads “binds”.
Then B20, with “binds”; and B21, with “binds”.
The result for B22 reads “binds”; that for B23, “binds”.
Take B24: the binding result is given as “binds”.
Then B25, with “binds”; and B26, with “binds”.
For B27, the binding result is given as “binds”.
The result for B28 reads “binds”.
Then B29, with “binds”; and B30, with “binds”; and B31, with “binds”.
Consider B32, for which the binding result is “binds”.
The result for B33 reads “binds”; that for B34, “binds”; that for B35, “binds”.

Values taken from paper PMC8324831, “A synthetic nanobody targeting RBD protects hamsters from SARS-CoV-2 infection” (Nature Communications, 2021).
